From doi:10.1101/2023.11.30.569392

Molecular target: T1, recTZF-WT (GST-TEV-TTP TZF) (Mus musculus, UniProt P22893 93-165)
T1 sequence: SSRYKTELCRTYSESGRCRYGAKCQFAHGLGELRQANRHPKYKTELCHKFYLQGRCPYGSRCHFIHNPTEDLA
Assay: EMSA

## AUUAUUUAUUAUUUAUUUAUUAUUUA (ssRNA) [Tnf-ARE]
  binding result: binds
